Tests used:
Conditions in all cases: partners not purified
[1] = target: T1, PP2A catalytic subunit PP2Acα/β, endogenous (human (endogenous in HEK293T, HeLa, …, UniProt P67775 1-309, carboxyl methyl ester on the C-terminal leucine in wild-type cells; strongly reduced in LCMT1 hypomorph cells); assay: affinity purification with mass spectrometry; PIB-MS: phosphatase inhibitor beads (microcystin-LR on sepharose) on Rpe1 lysates, wild type and pooled LCMT1 hypomorph cells; label-free LC-MS/MS; subunits normalised to the respective catalytic subunit
T1 construct: PP2A catalytic subunit, alpha (PPP2CA) or beta (PPP2CB) isoform; One molecule for wild-type and LCMT1 hypomorph cells; also called PP2Acβ; PPP2CA/B

[2] = target: T1, PP2A catalytic subunit PP2Acα/β, …; assay: affinity purification with mass spectrometry; PIB-MS: phosphatase inhibitor beads (microcystin-LR on sepharose) on HeLa lysates, wild type and LCMT1 hypomorph clone; label-free LC-MS/MS; subunits normalised to the respective catalytic subunit
[3] = target: T2, 3xFLAG-tagged PP2Acβ ΔL mutant (Leu 309 deleted) (human, UniProt P62714 1-309, ΔL309); assay: affinity purification with mass spectrometry; 3xFLAG-tagged catalytic subunit (WT or ΔL) transfected in FreeStyle 293F cells; FLAG M2 affinity gel, 3 h at 4 °C; lysis and wash buffer 50 mM Tris pH 7.5, 500 mM NaCl, 0.5% Triton X-100; eluted with 3XFLAG peptide; label-free quantitative LC-MS/MS on unique peptides, three replicates
T2 construct: PP2A catalytic subunit, beta isoform (PP2Acβ, PPP2CB), human, in p3XFLAG-CMV10; C-terminal Leu 309 deleted by inserting a stop codon; also called ΔL309
T2 sequence (P62714 1-308, stated change not applied): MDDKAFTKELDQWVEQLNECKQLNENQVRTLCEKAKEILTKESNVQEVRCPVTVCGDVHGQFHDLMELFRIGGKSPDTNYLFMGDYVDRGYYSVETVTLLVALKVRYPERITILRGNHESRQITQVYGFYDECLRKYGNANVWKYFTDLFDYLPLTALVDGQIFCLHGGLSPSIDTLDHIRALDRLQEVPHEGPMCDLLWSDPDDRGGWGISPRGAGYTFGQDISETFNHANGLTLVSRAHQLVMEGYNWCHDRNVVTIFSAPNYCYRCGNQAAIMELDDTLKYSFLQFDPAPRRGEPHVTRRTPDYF

T1 sequence (P67775 whole entry, canonical isoform): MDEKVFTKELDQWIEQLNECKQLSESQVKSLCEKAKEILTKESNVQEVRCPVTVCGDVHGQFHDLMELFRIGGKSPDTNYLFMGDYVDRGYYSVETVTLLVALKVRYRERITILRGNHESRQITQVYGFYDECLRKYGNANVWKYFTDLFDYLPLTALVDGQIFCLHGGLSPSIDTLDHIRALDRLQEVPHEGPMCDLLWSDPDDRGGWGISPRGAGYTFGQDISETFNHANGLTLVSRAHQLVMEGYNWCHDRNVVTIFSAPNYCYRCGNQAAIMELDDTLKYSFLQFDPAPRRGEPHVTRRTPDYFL

B1: STRN (striatin) (natural protein, human (endogenous in Rpe1), UniProt O43815 1-780, looked up)
chain: MDEQAGPGVFFSNNHPGAGGAKGLGPLAEAAAAGDGAAAAGAARAQYSLPGILHFLQHEWARFEVERAQWEVERAELQAQIAFLQGERKGQENLKKDLVRRIKMLEYALKQERAKYHKLKYGTELNQGDMKPPSYDSDEGNETEVQPQQNSQLMWKQGRQLLRQYLQEVGYTDTILDVKSKRVRALLGFSSDVTDREDDKNQDSVVNGTEAEVKETAMIAKSELTDSASVLDNFKFLESAAADFSDEDEDDDVDGREKSVIDTSTIVRKKALPDSGEDRDTKEALKEFDFLVTSEEGDNESRSAGDGTDWEKEDQCLMPEAWNVDQGVITKLKEQYKKERKGKKGVKRPNRSKLQDMLANLRDVDELPSLQPSVGSPSRPSSSRLPEHEINRADEVEALTFPPSSGKSFIMGADEALESELGLGELAGLTVANEADSLTYDIANNKDALRKTWNPKFTLRSHFDGIRALAFHPIEPVLITASEDHTLKMWNLQKTAPAKKSTSLDVEPIYTFRAHKGPVLCVVMSSNGEQCYSGGTDGLIQGWNTTNPNIDPYDSYDPSVLRGPLLGHTDAVWGLAYSAAHQRLLSCSADGTLRLWNTTEVAPALSVFNDTKELGIPASVDLVSSDPSHMVASFSKGYTSIFNMETQQRILTLESNVDTTANSSCQINRVISHPTLPISITAHEDRHIKFYDNNTGKLIHSMVAHLEAVTSLAVDPNGLYLMSGSHDCSIRLWNLESKTCIQEFTAHRKKFEESIHDVAFHPSKCYIASAGADALAKVFV
notes: Striatin, PP2A regulatory subunit of the striatin family (B'''); source: endogenous, Rpe1 lysate
fold reduction of binding, LCMT1 HM against WT cells [1]: 4 fold

B2: B55β, PP2A regulatory subunit (natural protein, human (endogenous in HeLa), UniProt Q00005 1-443, looked up)
chain: MEEDIDTRKINNSFLRDHSYATEADIISTVEFNHTGELLATGDKGGRVVIFQREQESKNQVHRRGEYNVYSTFQSHEPEFDYLKSLEIEEKINKIRWLPQQNAAYFLLSTNDKTVKLWKVSERDKRPEGYNLKDEEGRLRDPATITTLRVPVLRPMDLMVEATPRRVFANAHTYHINSISVNSDYETYMSADDLRINLWNFEITNQSFNIVDIKPANMEELTEVITAAEFHPHHCNTFVYSSSKGTIRLCDMRASALCDRHTKFFEEPEDPSNRSFFSEIISSISDVKFSHSGRYIMTRDYLTVKVWDLNMENRPIETYQVHDYLRSKLCSLYENDCIFDKFECVWNGSDSVIMTGSYNNFFRMFDRNTKRDVTLEASRENSKPRAILKPRKVCVGGKRRKDEISVDSLDFSKKILHTAWHPSENIIAVAATNNLYIFQDKVN
notes: PP2A regulatory subunit B55, beta isoform; source: endogenous, HeLa lysate
fold reduction of binding, LCMT1 HM against WT cells [2]: ~4 fold

B3: STRN3 (striatin-3) (natural protein, human (endogenous in Rpe1), UniProt Q13033 1-797, looked up)
chain: MDELAGGGGGGPGMAAPPRQQQGPGGNLGLSPGGNGAAGGGGPPASEGAGPAAGPELSRPQQYTIPGILHYIQHEWARFEMERAHWEVERAELQARIAFLQGERKGQENLKKDLVRRIKMLEYALKQERAKYHKLKYGTELNQGDLKMPTFESEETKDTEAPTAPQNSQLTWKQGRQLLRQYLQEVGYTDTILDVRSQRVRSLLGLSNSEPNGSVETKNLEQILNGGESPKQKGQEIKRSSGDVLETFNFLENADDSDEDEENDMIEGIPEGKDKHRMNKHKIGNEGLAADLTDDPDTEEALKEFDFLVTAEDGEGAGEARSSGDGTEWDKDDLSPTAEVWDVDQGLISKLKEQYKKERKGKKGVKRANRTKLYDMIADLGDDELPHIPSGIINQSRSASTRMTDHEGARAEEAEPITFPSGGGKSFIMGSDDVLLSVLGLGDLADLTVTNDADYSYDLPANKDAFRKTWNPKYTLRSHFDGVRALAFHPVEPVLVTASEDHTLKLWNLQKTVPAKKSASLDVEPIYTFRAHIGPVLSLAISSNGEQCFSGGIDATIQWWNMPSPSVDPYDTYEPNVLAGTLVGHTDAVWGLAYSGIKNQLLSCSADGTVRLWNPQEKLPCICTYNGDKKHGIPTSVDFIGCDPAHMVTSFNTGSAVIYDLETSQSLVILSSQVDSGLQSNNHINRVVSHPTLPVTITAHEDRHIKFFDNKTGKMIHSMVAHLDAVTSLAVDPNGIYLMSGSHDCSIRLWNLDSKTCVQEITAHRKKLDESIYDVAFHSSKAYIASAGADALAKVFV
notes: Striatin-3, PP2A regulatory subunit of the striatin family (B'''); source: endogenous, Rpe1 lysate
fold reduction of binding, LCMT1 HM against WT cells [1]: 4 fold

B4: PR65β, PP2A scaffolding (A) subunit (natural protein, UniProt P30154 1-601, looked up)
chain: MAGASELGTGPGAAGGDGDDSLYPIAVLIDELRNEDVQLRLNSIKKLSTIALALGVERTRSELLPFLTDTIYDEDEVLLALAEQLGNFTGLVGGPDFAHCLLPPLENLATVEETVVRDKAVESLRQISQEHTPVALEAYFVPLVKRLASGDWFTSRTSACGLFSVCYPRASNAVKAEIRQQFRSLCSDDTPMVRRAAASKLGEFAKVLELDSVKSEIVPLFTSLASDEQDSVRLLAVEACVSIAQLLSQDDLETLVMPTLRQAAEDKSWRVRYMVADRFSELQKAMGPKITLNDLIPAFQNLLKDCEAEVRAAAAHKVKELGENLPIEDRETIIMNQILPYIKELVSDTNQHVKSALASVIMGLSTILGKENTIEHLLPLFLAQLKDECPDVRLNIISNLDCVNEVIGIRQLSQSLLPAIVELAEDAKWRVRLAIIEYMPLLAGQLGVEFFDEKLNSLCMAWLVDHVYAIREAATNNLMKLVQKFGTEWAQNTIVPKVLVMANDPNYLHRMTTLFCINALSEACGQEITTKQMLPIVLKMAGDQVANVRFNVAKSLQKIGPILDTNALQGEVKPVLQKLGQDEDMDVKYFAQEAISVLALA
notes: PP2A scaffolding subunit A, beta isoform (PR65β)
fold reduction of binding, ΔL against WT [3]: ~2 fold

B5: B56α, PP2A regulatory subunit (natural protein)
chain: not shown
notes: PP2A regulatory subunit B56, alpha isoform
fold reduction of binding, ΔL against WT [3]: 32 fold

B6: B56δ, PP2A regulatory subunit (natural protein)
chain: not shown
notes: PP2A regulatory subunit B56, delta isoform
fold reduction of binding, ΔL against WT [3]: 2 fold

B7: B55α, PP2A regulatory subunit (natural protein, human (endogenous in HeLa), UniProt P63151 1-447, looked up)
chain: MAGAGGGNDIQWCFSQVKGAVDDDVAEADIISTVEFNHSGELLATGDKGGRVVIFQQEQENKIQSHSRGEYNVYSTFQSHEPEFDYLKSLEIEEKINKIRWLPQKNAAQFLLSTNDKTIKLWKISERDKRPEGYNLKEEDGRYRDPTTVTTLRVPVFRPMDLMVEASPRRIFANAHTYHINSISINSDYETYLSADDLRINLWHLEITDRSFNIVDIKPANMEELTEVITAAEFHPNSCNTFVYSSSKGTIRLCDMRASALCDRHSKLFEEPEDPSNRSFFSEIISSISDVKFSHSGRYMMTRDYLSVKIWDLNMENRPVETYQVHEYLRSKLCSLYENDCIFDKFECCWNGSDSVVMTGSYNNFFRMFDRNTKRDITLEASRENNKPRTVLKPRKVCASGKRKKDEISVDSLDFNKKILHTAWHPKENIIAVATTNNLYIFQDKVN
notes: PP2A regulatory subunit B55, alpha isoform; source: endogenous, HeLa lysate
fold reduction of binding, LCMT1 HM against WT cells [2]: ~11 fold

B8: B56ε, PP2A regulatory subunit (natural protein)
chain: not shown
notes: PP2A regulatory subunit B56, epsilon isoform
fold more reduced in binding (LCMT1 HM against WT cells) than B56γ and B56δ [2]: 8 fold | fold reduction of binding, ΔL against WT [3]: 11 fold
